From article PMC10842004 (Journal of molecular biology, 2023) come the findings set out here.

The target in this test is ubiquitin (UniProt P0CG48 1-76). Briefly: NMR titration.

B1: RAD23A UBA1 domain (aa 160–205) (domain or fragment)
chain: not shown
In the case of B1, the binding result is “binds”.
